In paper PMC7193404, “FHF1 is a bona fide fibroblast growth factor that activates cellular signaling in FGFR-dependent manner” (Cell Communication and Signaling : CCS, 2020):

Biological target: T1, extracellular region of FGFR1 fused to the Fc fragment (UniProt P11362 22-376)
T1 construct: extracellular region of FGFR1; also called FGFR1-Fc; source: produced in mammalian cells; as described previously [27-29]
T1 sequence (looked up): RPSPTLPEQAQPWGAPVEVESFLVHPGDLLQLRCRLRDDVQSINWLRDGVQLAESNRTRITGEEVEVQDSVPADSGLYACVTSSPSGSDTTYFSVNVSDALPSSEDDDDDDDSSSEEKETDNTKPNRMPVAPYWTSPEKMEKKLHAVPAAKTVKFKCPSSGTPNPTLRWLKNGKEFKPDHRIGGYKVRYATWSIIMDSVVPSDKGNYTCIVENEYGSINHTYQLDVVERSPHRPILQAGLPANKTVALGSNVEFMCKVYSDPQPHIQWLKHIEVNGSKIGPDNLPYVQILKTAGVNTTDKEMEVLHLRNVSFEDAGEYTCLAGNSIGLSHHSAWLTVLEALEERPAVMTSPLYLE
Test: SPR; Biacore 3000, 25 °C; FGFR1-Fc amine-coupled at low density (about 1000 RU) on CM4; FHF1 0.1-3.2 uM at 30 ul/min; PBS, 0.05% Tween 20, 0.2% BSA, 0.02% NaN3, pH 7.4; KD from fitted saturation binding curve (equilibrium responses); 1:1 model did not fit
Conditions: both partners purified

Kd: 612 nM
B1: fibroblast growth factor homologous factor 1, short isoform (FHF1b) (ligand, human, UniProt P61328-2 1-181, looked up)
chain: MESKEPQLKGIVTRLFSQQGYFLQMHPDGTIDGTKDENSDYTLFNLIPVGLRVVAIQGVKASLYVAMNGEGYLYSSDVFTPECKFKESVFENYYVIYSSTLYRQQESGRAWFLGLNKEGQIMKGNRVKKTKPSSHFVPKPIEVCMYREPSLHEIGEKQGRSRKSSGTPTMNGGKVVNQDST
notes: short isoform (FHF1b) of human FHF1 (FGF12); construct in pDEST17; Construct from F. Nakayama; also called FGF12; source: E. coli BL21 CodonPlus (DE3) RIL, purified (His-Trap, desalting column)
